Experimental findings from US20240167070A1 (NANYANG TECHNOLOGICAL UNIVERSITY, published 2024) are described below.

Starred links: 1 amine or outer side, 2 acyl side, 3 side chain; linkers in the order of their positions; H or OH if unused. Non-standard residues stand in square brackets, D forms with d. Primed or numbered codes have the meaning given here. No end group written: not given here. Asn(OH)″ = N^γ-hydroxy-L-asparagine (L-aspartic acid β-hydroxamate), O=C(C[C@H](N[*:1])C(=O)[*:2])NO; Asn(OH) = N-gamma-hydroxy-L-asparagine, O=C(C[C@H](N[*:1])C(=O)[*:2])NO[*:3] Some results are limits rather than exact numbers.

The target in experiment [1] is T1, matrix metalloprotease 2 (MMP2) (UniProt P08253 110-660, limits assumed).
T1 sequence (looked up): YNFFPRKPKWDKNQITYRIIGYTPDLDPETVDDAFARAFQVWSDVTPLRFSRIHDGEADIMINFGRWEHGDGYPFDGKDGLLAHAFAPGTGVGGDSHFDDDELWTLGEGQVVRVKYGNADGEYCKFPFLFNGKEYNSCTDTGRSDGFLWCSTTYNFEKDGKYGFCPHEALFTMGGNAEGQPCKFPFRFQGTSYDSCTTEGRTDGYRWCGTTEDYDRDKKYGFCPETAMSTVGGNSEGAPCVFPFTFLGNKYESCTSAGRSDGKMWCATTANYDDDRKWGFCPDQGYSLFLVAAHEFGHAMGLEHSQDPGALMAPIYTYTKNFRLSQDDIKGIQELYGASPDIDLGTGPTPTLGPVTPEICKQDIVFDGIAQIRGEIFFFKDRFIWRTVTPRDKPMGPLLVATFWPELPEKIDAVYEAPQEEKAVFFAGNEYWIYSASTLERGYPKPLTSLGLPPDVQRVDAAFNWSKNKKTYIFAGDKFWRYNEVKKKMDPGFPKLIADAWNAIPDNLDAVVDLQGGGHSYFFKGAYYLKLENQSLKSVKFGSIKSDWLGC
The experiment can be described thus: cell-based or functional assay.

Experiment [2] has as its target T1, matrix metalloprotease 2 (MMP2). Description: MMP2 FRET-substrate inhibition assay; Ki = IC50/(1+[S]0/Km). Here is the method: (§1) The inhibitory activity of the peptides was determined by measuring the MMPs' protease activity towards a FRET substrate. […] MMP2 was pre-incubated with the peptide inhibitors for 10 min before adding the substrate.
The target is the same in experiment [3]. Description: MMP2 FRET-substrate inhibition assay. As for the experimental part:
as §1

Experiment [4] has as its target MMP9 (UniProt P14780 107-707, limits assumed). Description: MMP9 FRET-substrate inhibition assay; Ki = IC50/(1+[S]0/Km). As for the experimental part:
as §1

The target of experiment [5] is trypsin. Description: cell-based or functional assay.
In experiment [6] the target is trypsin. Description: trypsin FRET-substrate inhibition assay; Ki = IC50/(1+[S]0/Km).
For experiment [7], the target named is T1, matrix metalloprotease 2 (MMP2). Description: MMP2 and MMP9 FRET-substrate inhibition assays. Here is the method: as §1

Chain of MMP9 (P14780 107-707 limits assumed): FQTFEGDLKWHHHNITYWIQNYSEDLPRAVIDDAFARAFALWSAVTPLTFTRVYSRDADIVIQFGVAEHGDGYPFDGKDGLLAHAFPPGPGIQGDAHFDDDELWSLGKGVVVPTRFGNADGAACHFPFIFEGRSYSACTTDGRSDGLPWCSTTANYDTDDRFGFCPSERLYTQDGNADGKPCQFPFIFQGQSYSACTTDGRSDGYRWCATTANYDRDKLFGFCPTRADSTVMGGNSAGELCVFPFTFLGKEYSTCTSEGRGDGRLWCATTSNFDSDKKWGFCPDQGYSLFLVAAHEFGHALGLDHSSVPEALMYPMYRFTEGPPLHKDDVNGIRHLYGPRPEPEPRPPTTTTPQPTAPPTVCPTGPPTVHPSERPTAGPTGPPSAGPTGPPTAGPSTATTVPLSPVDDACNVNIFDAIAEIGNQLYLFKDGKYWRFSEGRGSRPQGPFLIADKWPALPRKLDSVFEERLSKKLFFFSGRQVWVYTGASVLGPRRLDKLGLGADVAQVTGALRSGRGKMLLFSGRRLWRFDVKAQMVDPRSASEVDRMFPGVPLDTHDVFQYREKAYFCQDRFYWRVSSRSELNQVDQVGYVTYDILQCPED
Chain of trypsin (P00760 24-246): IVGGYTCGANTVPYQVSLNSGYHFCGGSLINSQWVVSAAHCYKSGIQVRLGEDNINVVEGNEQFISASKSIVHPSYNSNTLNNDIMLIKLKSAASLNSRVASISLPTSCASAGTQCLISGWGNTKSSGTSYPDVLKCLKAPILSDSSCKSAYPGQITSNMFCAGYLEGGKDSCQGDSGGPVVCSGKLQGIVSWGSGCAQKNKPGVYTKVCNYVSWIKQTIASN

B1: cyclo[SISYGQN(OH)ALMPG] (peptide)
peptide: cyclo(SISYGQ[Asn(OH)″]ALMPG)
SMILES: CC[C@H](C)[C@@H]1NC(=O)[C@H](CO)NC(=O)CNC(=O)[C@@H]2CCCN2C(=O)[C@H](CCSC)NC(=O)[C@H](CC(C)C)NC(=O)[C@H](C)NC(=O)[C@H](CC(=O)NO)NC(=O)[C@H](CCC(N)=O)NC(=O)CNC(=O)[C@H](Cc2ccc(O)cc2)NC(=O)[C@H](CO)NC1=O
For orientation: IC50 means the concentration at which inhibition is half-maximal. Low readings indicate higher potency, high ones lower potency. Regarding B1, the half-inhibitory concentration (IC50) in experiment [1] is more than 100000 nM.

B2: cyclo[…(OH)ALMPSGYM] (peptide)
peptide: cyclo(ATSGISYGQ[Asn(OH)]ALMPSGYM)
SMILES: CC[C@H](C)[C@@H]1NC(=O)CNC(=O)[C@H](CO)NC(=O)[C@H]([C@@H](C)O)NC(=O)[C@H](C)NC(=O)[C@H](CCSC)NC(=O)[C@H](Cc2ccc(O)cc2)NC(=O)CNC(=O)[C@H](CO)NC(=O)[C@@H]2CCCN2C(=O)[C@H](CCSC)NC(=O)[C@H](CC(C)C)NC(=O)[C@H](C)NC(=O)[C@H](CC(=O)NO)NC(=O)[C@H](CCC(N)=O)NC(=O)CNC(=O)[C@H](Cc2ccc(O)cc2)NC(=O)[C@H](CO)NC1=O
notes: also called peptide 14
In the case of B2, the Ki in experiment [2] worked out at 2180 nM. In addition, the 50% inhibitory concentration (IC50) in experiment [1] is 3340 nM.

B3: β-amyloid precursor protein-derived inhibitory peptide (APP-IP) 8, ISYGNDALMP (peptide)
peptide: ISYGNDALMP-NH2
notes: Linear 10-mer; also called peptide 8; linear APP-IP 8
B3 displayed a Ki in experiment [2] of 60 nM. In addition, the half-maximal inhibitory concentration (IC50) in experiment [1] came to 92 nM.

B4: Asn(OH)-APP-IP peptide 9, ISYGNN(OH)ALMP (peptide)
peptide: ISYGN[Asn(OH)″]ALMP-NH2
modifications: N-terminus assumed
SMILES: CC[C@H](C)[C@H](N)C(=O)N[C@@H](CO)C(=O)N[C@@H](Cc1ccc(O)cc1)C(=O)NCC(=O)N[C@@H](CC(N)=O)C(=O)N[C@@H](CC(=O)NO)C(=O)N[C@@H](C)C(=O)N[C@@H](CC(C)C)C(=O)N[C@@H](CCSC)C(=O)N1CCC[C@H]1C(N)=O
notes: Linear 10-mer; also called linear Asn(OH)-APP-IP peptide 9
The molecule B4 yielded a Ki in experiment [2] of 23 nM. Besides, in experiment [1], the midpoint of inhibition, the IC50, lay at 35 nM. In addition, the “fold improvement of inhibitory activity against APP-IP 8” value in experiment [3] turned out to be 2.6 fold.

B5: cyclo[ISYGQN(OH)ALMP] (peptide)
peptide: cyclo(ISYGQ[Asn(OH)″]ALMP)
SMILES: CC[C@H](C)[C@@H]1NC(=O)[C@@H]2CCCN2C(=O)[C@H](CCSC)NC(=O)[C@H](CC(C)C)NC(=O)[C@H](C)NC(=O)[C@H](CC(=O)NO)NC(=O)[C@H](CCC(N)=O)NC(=O)CNC(=O)[C@H](Cc2ccc(O)cc2)NC(=O)[C@H](CO)NC1=O
notes: also called peptide 10
For B5, the Ki in experiment [2] was 21300 nM. Moreover, the “IC50” value in experiment [1] amounted to 32500 nM.

B6: cyclo[…(OH)ALMPSGQYM] (peptide)
peptide: cyclo(ATRSGISYGQ[Asn(OH)″]ALMPSGQYM)
SMILES: CC[C@H](C)[C@@H]1NC(=O)CNC(=O)[C@H](CO)NC(=O)[C@H](CCCNC(=N)N)NC(=O)[C@H]([C@@H](C)O)NC(=O)[C@H](C)NC(=O)[C@H](CCSC)NC(=O)[C@H](Cc2ccc(O)cc2)NC(=O)[C@H](CCC(N)=O)NC(=O)CNC(=O)[C@H](CO)NC(=O)[C@@H]2CCCN2C(=O)[C@H](CCSC)NC(=O)[C@H](CC(C)C)NC(=O)[C@H](C)NC(=O)[C@H](CC(=O)NO)NC(=O)[C@H](CCC(N)=O)NC(=O)CNC(=O)[C@H](Cc2ccc(O)cc2)NC(=O)[C@H](CO)NC1=O
notes: also called peptide 15
In the case of B6, in experiment [2], the Ki was found to be 231 nM. Besides, half-maximal inhibition in experiment [1] (IC50) required 354 nM.

B7: cyclo[…(OH)ALMPSGA] (peptide)
peptide: cyclo(GSGISYGQ[Asn(OH)]ALMPSGA)
SMILES: CC[C@H](C)[C@@H]1NC(=O)CNC(=O)[C@H](CO)NC(=O)CNC(=O)[C@H](C)NC(=O)CNC(=O)[C@H](CO)NC(=O)[C@@H]2CCCN2C(=O)[C@H](CCSC)NC(=O)[C@H](CC(C)C)NC(=O)[C@H](C)NC(=O)[C@H](CC(=O)NO)NC(=O)[C@H](CCC(N)=O)NC(=O)CNC(=O)[C@H](Cc2ccc(O)cc2)NC(=O)[C@H](CO)NC1=O
notes: also called peptide 13
As to B7, the Ki in experiment [2] is 12000 nM. For the same molecule, in experiment [1], the “IC50” value was 18400 nM.

B8: cyclo[SGISYGQN(OH)ALMPSG] (peptide)
peptide: cyclo(SGISYGQ[Asn(OH)″]ALMPSG)
SMILES: CC[C@H](C)[C@@H]1NC(=O)CNC(=O)[C@H](CO)NC(=O)CNC(=O)[C@H](CO)NC(=O)[C@@H]2CCCN2C(=O)[C@H](CCSC)NC(=O)[C@H](CC(C)C)NC(=O)[C@H](C)NC(=O)[C@H](CC(=O)NO)NC(=O)[C@H](CCC(N)=O)NC(=O)CNC(=O)[C@H](Cc2ccc(O)cc2)NC(=O)[C@H](CO)NC1=O
notes: also called peptide 12
The molecule B8 returned a Ki in experiment [2] of 6980 nM. For the same molecule, half-maximal inhibition in experiment [1] (IC50) required 10700 nM.

B9: rhesus theta defensin-1 (RTD-1) 16, cyclo[GFCRCLCRRGVCRCICTR] (peptide)
peptide: cyclo(GFCRCLCRRGVCRCICTR)
modifications: disulfide (positions not given here); not fully specified; printed as cyclo[GFCRCLCRRGVCRCICTR]
notes: also called peptide 16; native RTD-1
In turn, B9 came in with a Ki in experiment [2] of 60 nM.

B10: Asp-RTD-1 18, cyclo[SYCDCLCRRGVCRCICTI] (peptide)
peptide: cyclo(SYCDCLCRRGVCRCICTI)
modifications: disulfide (positions not given here); also: oxidatively folded, disulfide pairing not given here
notes: Obtained by NaIO4 oxidation of Asn(OH)-RTD-1 17; also called peptide 18
For the molecule B10, the values for the Ki in experiment [2] and in experiment [4] were 6.5 nM and 3290 nM, respectively.

B11: Asn-RTD-1 19, cyclo[SYCNCLCRRGVCRCICTI] (peptide)
peptide: cyclo(SYCNCLCRRGVCRCICTI)
modifications: disulfide (positions not given here); also: oxidatively folded disulfides, pairing not given here
notes: also called peptide 19
With B11, the Ki in experiment [2] turned out to be 36.5 nM; in experiment [4] it was 5590 nM.

B12: cyclic MCoTI-II, [GGVCPKILKKCRRDSDCPGACICRGNGYCGSGSD] (peptide)
peptide: cyclo(GGVCPKILKKCRRDSDCPGACICRGNGYCGSGSD)
modifications: not fully specified (bridges); also: three disulfide bonds, pairing not given here
notes: also called MCoTI-II 20; cyclo-MCoTI-II
In the case of B12, 2.01 nM corresponded to half-maximal inhibition in experiment [5] (IC50). In experiment [6], the Ki turned out to be 0.18 nM.

B13: Asn(OH)-RTD1 17, cyclo[SYCN(OH)CLCRRGVCRCICTI] (peptide)
peptide: cyclo(SYC[Asn(OH)]CLCRRGVCRCICTI)
modifications: disulfide (positions not given here); not fully specified (bridges); printed as cyclo[SYCN(OH)CLCRRGVCRCICTI]; also: oxidatively folded disulfides, pairing not given here
notes: also called peptide 17; grafted peptide 17
Consider B13, for which the “fold more potent towards MMP2 than MMP9” value in experiment [7] was approximately 1000 fold. In addition, in experiment [2], the Ki was determined as 2.8 nM. In addition, the Ki in experiment [4] turned out to be 2680 nM. Further, in experiment [3], the “fold better binding affinity against Asn-RTD-1 19” value came out at 13 fold, the “fold better binding affinity against Asp-RTD-1 18” value is 2.3 fold and the “fold improvement of Ki against the linear Asn(OH)-APP-IP peptide 9” value worked out at 8.2 fold.
